{"source": "paper PMC12820725", "about": "“Ribosomal protein control of hematopoietic stem cell transformation through regulation of metabolism”", "binders": {"B1": {"name": "EBER1 (structured_RNA)", "RNA": "GGUCCGUCCCGGGUACAAGUCCCGGGUGGUGA"}, "B2": {"name": "EBER2 (ssRNA)", "RNA": "GCUCAGUGCGGUGCUACCGACCCGAGGUCAAG"}, "B3": {"name": "Alox12 BS2 (structured_RNA)", "RNA": "AUUUCCUCACCAUGUGUGUUUUCACAUGCACU"}, "B4": {"name": "Alox12 BS1 (structured_RNA)", "RNA": "AUCCUGCUGGAUGGAAUUCCAGCUAAUGUGAU"}, "B5": {"name": "Alox12 NBS (ssRNA)", "RNA": "ACCAGAGUGAUGAUAUUGUGAGGGGAGACCCA"}}, "key": {"[1]": {"target": "GST-Rpl22 (UniProt P67984 1-128)", "experiment": "EMSA; 5 mM MgCl2, E. coli tRNA competitor; 37.5 mM HEPES pH 7.9, 75 mM NaCl, 5 mM MgCl2, 0.1 mg/ml BSA, 8% glycerol, 1 ug E. coli tRNA, 5 nM 32P-RNA; temperature not stated", "settings": "protein: recombinant; tags: GST; label: 5'-32P"}, "[2]": {"target": "GST-Rpl22 (UniProt P67984 1-128)", "experiment": "EMSA; 5 mM MgCl2, E. coli tRNA competitor; 37.5 mM HEPES pH 7.9, 75 mM NaCl, 5 mM MgCl2, 0.1 mg/ml BSA, 8% glycerol, 1 ug E. coli tRNA, 5 nM 32P-RNA; temperature not stated"}}, "note": "Read-outs that look alike come from different tables or passages of the source.", "data": [{"binder": "B1", "values": [{"measurement": "binding result", "setting": "[1]", "result": "binds"}]}, {"binder": "B2", "values": [{"measurement": "binding result", "setting": "[1]", "result": "no binding"}]}, {"binder": "B3", "values": [{"measurement": "binding result", "setting": "[2]", "result": "binds"}]}, {"binder": "B4", "values": [{"measurement": "binding result", "setting": "[2]", "result": "no binding"}]}, {"binder": "B5", "values": [{"measurement": "binding result", "setting": "[2]", "result": "no binding"}]}]}
